Tests used:
[1] = test system: LacI-Halo WT (Escherichia coli); assay: PBM real-time kinetics (kd/ka); details: PBM: imaging buffer (Na+ + K+ about 30 mM; composition and pH not in the material), EMSA: 1 nM DNA, 0-500 nM LacI (monomer), 1x imaging buffer with 20, 100 or …
[2] = test system: Q55N-LacI-Halo Q55N (Escherichia coli); assay: PBM real-time kinetics (kd/ka); details: PBM: imaging buffer (Na+ + K+ about 30 mM; composition and pH not in the material), EMSA: 1 nM DNA, 0-500 nM LacI (monomer), 1x imaging buffer with 20, 100 or …
[3] = test system: V52A-LacI-Halo V52A (Escherichia coli); assay: PBM real-time kinetics (kd/ka); details: PBM: imaging buffer (Na+ + K+ about 30 mM; composition and pH not in the material), EMSA: 1 nM DNA, 0-500 nM LacI (monomer), 1x imaging buffer with 20, 100 or …
[4] = test system: LacI-Halo WT (Escherichia coli); assay: EMSA; details: NaCl titration; Methods list 20, 100, 200 mM; Kd values only in figure; PBM: imaging buffer (Na+ + K+ about 30 mM; composition and pH not in the material); EMSA: 1 nM DNA, 0-500 nM LacI (monomer), 1x imaging buffer with 20, 100 or …
[5] = test system: Q55N-LacI-Halo Q55N (Escherichia coli); assay: EMSA; details: NaCl titration; Methods list 20, 100, 200 mM; Kd values only in figure; PBM: imaging buffer (Na+ + K+ about 30 mM; composition and pH not in the material); EMSA: 1 nM DNA, 0-500 nM LacI (monomer), 1x imaging buffer with 20, 100 or …

O1 operator (PBM)
binding signal (KD/WT-KD(Osym)) ([1]; relative ka 0.66, kd 8.84 ± 0.12 e-4 s-1): 6.1 | binding signal (KD/WT-KD(Osym)) ([2]; relative ka 0.35, kd 22.79 ± 0.89 e-4 s-1): 28.4 | binding signal (KD/WT-KD(Osym)) ([3]; relative ka 0.72, kd 3.80 ± 0.06 e-4 s-1): 2.6

O2 operator (PBM)
binding signal (KD/WT-KD(Osym)) ([1]; relative ka 0.42, kd 13.25 ± 0.35 e-4 s-1): 14.1 | binding signal (KD/WT-KD(Osym)) ([2]; relative ka 0.12, kd 36.53 ± 3.80 e-4 s-1): 140 | binding signal (KD/WT-KD(Osym)) ([3]; relative ka 0.58, kd 4.84 ± 0.10 e-4 s-1): 4.1

Osym operator (PBM)
binding signal (KD/WT-KD(Osym)) ([1]; reference, kd 2.14 ± 0.03 e-4 s-1): 1 | binding signal (KD/WT-KD(Osym)) ([2]; relative ka 0.89, kd 7.39 ± 0.13 e-4 s-1): 3.6 | binding signal (KD/WT-KD(Osym)) ([3]; relative ka 1.03, kd 0.89 ± 0.02 e-4 s-1): 0.4

Osym 60 bp EMSA probe
binding signal (fold KD increase, 50 to 200 mM NaCl) [4]: 10 | binding signal (fold KD increase, 50 to 200 mM NaCl) [5]: 2

— publication PMC13069688
